How the values were obtained:
[1] = target: T1, human CD33 Fc fusion protein (human, UniProt P20138 18-259); test: ForteBio BLI or MSD-SET, IgG, avid;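 note: Anti-CD33 IgG affinity by BLI, IgG captured on AHQ sensors with antigen in solution and a one-to-one kinetic fit, or by MSD solution equilibrium titration with quadratic fit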
T1 construct: also called hCD33-Fc; human CD33/Fc chimera (R&D Systems)

[2] = target: T1, human CD33 Fc fusion protein; test: RBC adhesion to plate-bound CD33-Fc; antibody 1.0 ug/ml;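 note: red blood cells adhering to plate-coated CD33-Fc after 1 h antibody pretreatment, then 1 h at room temperature, bound cells read as peroxidase activity after lysis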
human CD33 [3] = target: T2, human CD33 (human, UniProt P20138 18-364); test: flow cytometry, human primary dendritic cells;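 note: binding of anti-CD33 antibodies (10 ug/ml, 1 h on ice) to human primary dendritic cells, detected with a PE-labelled secondary antibody, reported as flow cytometry MFI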
T2 construct: CD33 on human primary dendritic cells, macrophages, monocytes and T cells and on CHO cells expressing recombinant human CD33; also called Siglec-3; hCD33
Protocol: (§1) Initial characterization of CD33 antibodies involved determining their ability to bind CD33 expressed on a CHO cell line, on human primary monocytes, human primary macrophages, human primary dendritic cells, and on human primary T cells. Cells were harvested, plated at 10⁶/ml in a 96 well plate, and incubated in 100 ul PBS containing 2% FBS, 2 mM EDTA and 10 ug/ml Mab and Fc blocking reagent for 1 hour in ice. Cells were washed twice and incubated in 100 ul PBS containing 2% FBS, 2 mM EDTA and 5 ug/ml PE-conjugated secondary antibody for 30 minutes on ice. Cells were washed twice in cold PBS and analyze by flow cytometry on a BD FACS Canto. Data analysis and calculation of MFI values was performed with FlowJo (TreeStar) software version 10.0.7.

human CD33 [4] = target: T2, human CD33; test: flow cytometry, human primary T cells;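 note: binding of anti-CD33 antibodies at 10 ug/ml to human primary T cells, 1 h on ice, detected with PE-labelled secondary antibody, read as flow cytometry MFI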
[5] = target: T3, mouse CD33 Fc fusion protein (mouse, UniProt Q63994 18-240, limits assumed); test: ForteBio BLI or MSD-SET
T3 construct: also called mCD33-Fc
T3 sequence: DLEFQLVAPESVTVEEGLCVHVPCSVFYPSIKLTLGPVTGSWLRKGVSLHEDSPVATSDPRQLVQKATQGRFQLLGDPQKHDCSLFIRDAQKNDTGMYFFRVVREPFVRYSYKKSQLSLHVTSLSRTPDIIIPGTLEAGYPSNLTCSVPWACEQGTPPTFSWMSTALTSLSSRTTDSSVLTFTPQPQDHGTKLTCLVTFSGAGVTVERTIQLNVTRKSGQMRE

human CD33 [6] = target: T2, human CD33; test: flow cytometry, human primary monocytes; design: reference not given here;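 note: binding of anti-CD33 antibodies at 10 ug/ml to human primary monocytes, 1 h on ice, detected by PE-labelled secondary antibody, flow cytometry readout as mean fluorescence intensity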
[7] = target: T4, human monomeric His tagged CD33 protein (human, UniProt P20138 18-259); test: ForteBio BLI or MSD-SET, IgG, monomeric antigen;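 note: BLI: antibodies captured on AHQ sensors, 100 nM antigen association 5 min, dissociation 5 min, 1:1 fit. MSD-SET: antigen fixed at 50 pM, antibody titrated, quadratic fit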
T4 construct: also called hCD33-His
Protocol: The binding affinity of each anti-CD33 antibody was determined by measuring their KD by ForteBio or MSD-SET. […] Briefly, ForteBio affinity measurements were performed by loading IgGs on-line onto AHQ sensors. Sensors were equilibrated off-line in assay buffer for 30 min and then monitored on-line for 60 seconds for baseline establishment. Sensors with loaded IgGs were exposed to 100 nM antigen for 5 minutes, then transferred to assay buffer for 5 min for off-rate measurement. Kinetics were analyzed using the 1:1 binding model.
Solution equilibrium titrations (SET) were performed in PBS+0.1% IgG-Free BSA (PBSF) with antigen held constant at 50 pM and incubated with 3-to 5-fold serial dilutions of antibody starting at 10 nM. Antibodies (20 nM in PBS) were coated onto standard bind MSD-ECL plates overnight at 4° C. or at room temperature for 30 min. Plates were then blocked for 30 min with shaking at 700 rpm, followed by three washes with wash buffer (PBSF+0.05% Tween 20). SET samples were applied and incubated on the plates for 150s with shaking at 700 rpm followed by one wash. Antigen captured on a plate was detected with 250 ng/mL sulfotag-labeled streptavidin in PBSF by incubation on the plate for 3 min. The plates were washed three times with wash buffer and then read on the MSD Sector Imager 2400 instrument using 1× Read Buffer T with surfactant. The percent free antigen was plotted as a function of titrated antibody in Prism and fit to a quadratic equation to extract the KD. To improve throughput, liquid handling robots were used throughout MSD-SET experiments, including SET sample preparation.

human CD33 [8] = target: T2, human CD33; test: cell-based or functional assay
[9] = target: T1, human CD33 Fc fusion protein; test: RBC adhesion to plate-bound CD33-Fc; antibody 0.5 ug/ml;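 note: Plate-coated CD33-Fc preincubated 1 h with antibody, then red blood cells added for 1 h at room temperature, adherent cells lysed and quantified via peroxidase activity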
human CD33 [10] = target: T2, human CD33; test: flow cytometry, human primary macrophages;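 note: binding of CD33 antibodies at 10 µg/ml to human primary macrophages, 1 h on ice, detected with PE-labelled secondary antibody by flow cytometry, reported as MFI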
Protocol: as §1

T2 sequence (P20138 18-364): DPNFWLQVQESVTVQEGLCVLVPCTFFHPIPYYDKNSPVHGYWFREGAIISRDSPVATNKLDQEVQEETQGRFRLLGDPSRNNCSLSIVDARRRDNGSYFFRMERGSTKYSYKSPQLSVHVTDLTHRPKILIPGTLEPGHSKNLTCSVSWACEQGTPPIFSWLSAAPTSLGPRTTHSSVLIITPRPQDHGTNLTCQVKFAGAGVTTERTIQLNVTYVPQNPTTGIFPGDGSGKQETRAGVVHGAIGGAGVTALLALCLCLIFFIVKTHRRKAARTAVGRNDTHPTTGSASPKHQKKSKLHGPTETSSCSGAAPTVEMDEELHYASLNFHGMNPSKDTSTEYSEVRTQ
T1 sequence (P20138 18-259 limits assumed): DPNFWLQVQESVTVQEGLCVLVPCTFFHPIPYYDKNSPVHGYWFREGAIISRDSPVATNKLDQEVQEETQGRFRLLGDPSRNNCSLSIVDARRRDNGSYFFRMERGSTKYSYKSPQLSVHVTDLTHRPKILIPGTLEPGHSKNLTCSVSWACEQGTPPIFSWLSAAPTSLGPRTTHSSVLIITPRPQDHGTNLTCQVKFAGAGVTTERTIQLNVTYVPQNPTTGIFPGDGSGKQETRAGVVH
T4 sequence (P20138 18-259 limits assumed): as above

B1: C-14 (antibody, V domains shown)
VH: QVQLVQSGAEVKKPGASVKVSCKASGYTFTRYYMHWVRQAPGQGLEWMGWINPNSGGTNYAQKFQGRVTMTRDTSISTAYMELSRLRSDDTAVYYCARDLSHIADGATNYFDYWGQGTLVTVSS
VL: DIQMTQSPSSVSASVGDRVTITCRASQGISSWLAWYQQKPGKAPKLLIYAASSLQSGVPSRFSGSGSGTDFTLTISSLQPEDFATYYCQQANYFPTFGGGTKVEIK
notes: human IgG1
[1]
  Kd: 1.28 nM
[2]
  Percent RBC Binding to CD33: 80.8%
Human CD33 [3]
  DC MFI: 1120
Human CD33 [4]
  T cell MFI: 35.7
[5]
  binding result: no binding (tested: 100 nM)
Human CD33 [6]
  Monocyte MFI: 178
[7]
  Kd: 3.49 nM
Human CD33 [8]
  Percent CD33 Surface Expression, DC % CD33: 63.1%
  Percent CD33 Surface Expression, Macrophage % CD33: 97.4%
  Percent CD33 Surface Expression, Monocyte % CD33: 101%
[9]
  Percent RBC Binding to CD33: 76.5%
Human CD33 [10]
  Macrophage MFI: 746

B2: C-15 (antibody, V domains shown)
VH: QVQLVESGGGVVQPGRSLRLSCAASGFTFSSYGMHWVRQAPGKGLEWVAVIWYDGSNKYYADSVKGRFTISRDNSKNTLYLQMNSLRAEDTAVYYCAKGVGYDTGTDMDVWGKGTTVTVSS
VL: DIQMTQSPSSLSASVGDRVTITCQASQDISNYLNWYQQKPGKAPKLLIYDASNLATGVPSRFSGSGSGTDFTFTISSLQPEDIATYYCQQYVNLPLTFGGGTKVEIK
notes: human IgG1
[1]
  Kd: 1.82 nM
[2]
  Percent RBC Binding to CD33: 8.77%
Human CD33 [3]
  DC MFI: 2020
Human CD33 [4]
  T cell MFI: 206
[5]
  binding result: no binding (tested: 100 nM)
Human CD33 [6]
  Monocyte MFI: 191
[7]
  Kd: 6.55 nM
Human CD33 [8]
  Percent CD33 Surface Expression, DC % CD33: 17%
  Percent CD33 Surface Expression, Macrophage % CD33: 42%
  Percent CD33 Surface Expression, Monocyte % CD33: 32.6%
[9]
  Percent RBC Binding to CD33: 15.3%
Human CD33 [10]
  Macrophage MFI: 883

B3: C-16 (antibody, V domains shown)
VH: EVQLVESGGGLVQPGGSLRLSCAASGFTFSSYWMSWVRQAPGKGLEWVANINQDGSEKYYVDSVKGRFTISRDNAKNSLYLQMNSLRAEDTAVYYCAREGSDRHPFDYWGQGTLVTVSS
VL: DIQMTQSPSSLSASVGDRVTITCRASQSISSYLNWYQQKPGKAPKLLIYAASSLQSGVPSRFSGSGSGTDFTLTISSLQPEDFATYYCQQAYLVPLTFGGGTKVEIK
notes: human IgG1
[1]
  Kd: 1.35 nM
[2]
  Percent RBC Binding to CD33: 7.69%
Human CD33 [3]
  DC MFI: 1750
Human CD33 [4]
  T cell MFI: 229
[5]
  binding result: no binding (tested: 100 nM)
Human CD33 [6]
  Monocyte MFI: 133
[7]
  Kd: 5.87 nM
Human CD33 [8]
  Percent CD33 Surface Expression, DC % CD33: 19.5%
  Percent CD33 Surface Expression, Macrophage % CD33: 62.6%
  Percent CD33 Surface Expression, Monocyte % CD33: 42.4%
[9]
  Percent RBC Binding to CD33: 17.2%
Human CD33 [10]
  Macrophage MFI: 711

B4: C-20 (antibody, V domains shown)
VH: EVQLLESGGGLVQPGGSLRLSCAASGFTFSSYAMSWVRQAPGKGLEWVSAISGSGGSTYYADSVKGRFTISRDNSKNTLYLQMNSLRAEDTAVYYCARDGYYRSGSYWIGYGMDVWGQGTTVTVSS
VL: EIVLTQSPGTLSLSPGERATLSCRASQSVSSSFLAWYQQKPGQAPRLLIYGASSRATGIPDRFSGSGSGTDFTLTISRLEPEDFAVYYCQQVDSYPPTFGGGTKVEIK
notes: human IgG1
[1]
  Kd: 0.304 nM
[2]
  Percent RBC Binding to CD33: 9.4%
Human CD33 [3]
  DC MFI: 1700
Human CD33 [4]
  T cell MFI: 205
[5]
  binding result: no binding (tested: 100 nM)
Human CD33 [6]
  Monocyte MFI: 196
[7]
  Kd: 0.958 nM
Human CD33 [8]
  Percent CD33 Surface Expression, DC % CD33: 30.2%
  Percent CD33 Surface Expression, Macrophage % CD33: 54.3%
  Percent CD33 Surface Expression, Monocyte % CD33: 53.9%
[9]
  Percent RBC Binding to CD33: 12.5%
Human CD33 [10]
  Macrophage MFI: 730

B5: C-22 (antibody, V domains shown)
VH: QVQLQESGPGLVKPSETLSLTCAVSGYSISSGYYWGWIRQPPGKGLEWIGSIYHSGNTYYNPSLKSRVTISVDTSKNQFSLKLSSVTAADTAVYYCARDGRYSSSGELYYGMDVWGQGTTVTVSS
VL: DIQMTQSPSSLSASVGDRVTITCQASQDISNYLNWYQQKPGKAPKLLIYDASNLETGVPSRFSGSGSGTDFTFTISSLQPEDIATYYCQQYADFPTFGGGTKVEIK
notes: human IgG1
[1]
  Kd: 0.445 nM
[2]
  Percent RBC Binding to CD33: 9.95%
Human CD33 [3]
  DC MFI: 1650
Human CD33 [4]
  T cell MFI: 207
[5]
  binding result: no binding (tested: 100 nM)
Human CD33 [6]
  Monocyte MFI: 188
[7]
  Kd: 1.97 nM
Human CD33 [8]
  Percent CD33 Surface Expression, DC % CD33: 17%
  Percent CD33 Surface Expression, Macrophage % CD33: 44%
  Percent CD33 Surface Expression, Monocyte % CD33: 40.7%
[9]
  Percent RBC Binding to CD33: 11.5%
Human CD33 [10]
  Macrophage MFI: 912

B6: C-23 (antibody, V domains shown)
VH: QVQLQESGPGLVKPSETLSLTCAVSGYSISSGYYWGWIRQPPGKGLEWIGTIYHSGSTYYNPSLKSRVTISVDTSKNQFSLKLSSVTAADTAVYYCAREVGVVGALPYFDYWGQGTLVTVSS
VL: DIQMTQSPSSLSASVGDRVTITCRASQSISSYLNWYQQKPGKAPKLLIYGASSLQSGVPSRFSGSGSGTDFTLTISSLQPEDFATYYCQQASSSPPTFGGGTKVEIK
notes: human IgG1
[1]
  Kd: 3.39 nM
[2]
  Percent RBC Binding to CD33: 8.42%
Human CD33 [3]
  DC MFI: 1050
Human CD33 [4]
  T cell MFI: 242
[5]
  binding result: no binding (tested: 100 nM)
Human CD33 [6]
  Monocyte MFI: 128
[7]
  Kd: 21.1 nM
Human CD33 [8]
  Percent CD33 Surface Expression, DC % CD33: 69.5%
  Percent CD33 Surface Expression, Monocyte % CD33: 71.3%
[9]
  Percent RBC Binding to CD33: 13.8%
Human CD33 [10]
  Macrophage MFI: 771

B7: C-25 (antibody, V domains shown)
VH: EVQLVESGGGLVQPGGSLRLSCAASGFTFSSYWMSWVRQAPGKGLEWVANIKSDGSEKYYVDSVKGRFTISRDNAKNSLYLQMNSLRAEDTAVYYCAREGFRDGINWFDPWGQGTLVTVSS
VL: DIQMTQSPSSLSASVGDRVTITCRASQSISRYLNWYQQKPGKAPKLLIYAASSLQSGVPSRFSGSGSGTDFTLTISSLQPEDFATYYCQQQFLTPITFGGGTKVEIK
notes: human IgG1
[1]
  Kd: 1.85 nM
[2]
  Percent RBC Binding to CD33: 10.1%
Human CD33 [3]
  DC MFI: 1790
Human CD33 [4]
  T cell MFI: 187
[5]
  binding result: no binding (tested: 100 nM)
Human CD33 [6]
  Monocyte MFI: 139
[7]
  Kd: 8.78 nM
Human CD33 [8]
  Percent CD33 Surface Expression, DC % CD33: 22.3%
  Percent CD33 Surface Expression, Macrophage % CD33: 41.9%
  Percent CD33 Surface Expression, Monocyte % CD33: 35.4%
[9]
  Percent RBC Binding to CD33: 11.3%
Human CD33 [10]
  Macrophage MFI: 877

B8: C-26 (antibody, V domains shown)
VH: QLQLQESGPGLVKPSETLSLTCTVSGGSISSNSYYWGWIRQPPGKGLEWIGSIYYSGSTYYNPSLKSRVTISVDTSKNQFSLKLSSVTAADTAVYYCARSPVYYDSSGYFQYYGMDVWGQGTTVTVSS
VL: EIVLTQSPATLSLSPGERATLSCRASQSVSSYLAWYQQKPGQAPRLLIYDASKRATGIPARFSGSGSGTDFTLTISSLEPEDFAVYYCQQSIVWPPFTFGGGTKVEIK
notes: human IgG1
[1]
  Kd: 0.388 nM
[2]
  Percent RBC Binding to CD33: 15.2%
Human CD33 [3]
  DC MFI: 1960
Human CD33 [4]
  T cell MFI: 198
[5]
  binding result: no binding (tested: 100 nM)
Human CD33 [6]
  Monocyte MFI: 188
[7]
  Kd: 1.57 nM
Human CD33 [8]
  Percent CD33 Surface Expression, DC % CD33: 18.8%
  Percent CD33 Surface Expression, Macrophage % CD33: 45.1%
  Percent CD33 Surface Expression, Monocyte % CD33: 33%
[9]
  Percent RBC Binding to CD33: 19.2%
Human CD33 [10]
  Macrophage MFI: 926

B9: C-28 (antibody, V domains shown)
VH: EVQLVESGGGLVQPGGSLRLSCAASGFTFSSYWMSWVRQAPGKGLEWVANINQDGSEKYYVDSVKGRFTISRDNAKNSLYLQMNSLRAEDTAVYYCAREGRRTMNAFDIWGQGTMVTVSS
VL: DIQMTQSPSSLSASVGDRVTITCRASQSISSYLNWYQQKPGKAPKLLIYGASSLQSGVPSRFSGSGSGTDFTLTISSLQPEDFATYYCQQGYDVPITFGGGTKVEIK
notes: human IgG1
[1]
  Kd: 1.02 nM
[2]
  Percent RBC Binding to CD33: 9.65%
Human CD33 [3]
  DC MFI: 1780
Human CD33 [4]
  T cell MFI: 402
[5]
  binding result: no binding (tested: 100 nM)
Human CD33 [6]
  Monocyte MFI: 143
[7]
  Kd: 4 nM
Human CD33 [8]
  Percent CD33 Surface Expression, DC % CD33: 14.8%
  Percent CD33 Surface Expression, Macrophage % CD33: 40.2%
  Percent CD33 Surface Expression, Monocyte % CD33: 29.2%
[9]
  Percent RBC Binding to CD33: 14%
Human CD33 [10]
  Macrophage MFI: 811

B10: C-30 (antibody, V domains shown)
VH: QVQLVQSGAEVKKPGASVKVSCKASGYTFTSYYMHWVRQAPGQGLEWMGVINPSGGSTSYAQKFQGRVTMTRDTSTSTVYMELSSLRSEDTAVYYCAREEAVAADLGVDVWGQGTTVTVSS
VL: not shown
[1]
  Kd: 0.985 nM
[2]
  Percent RBC Binding to CD33: 8.9%
Human CD33 [3]
  DC MFI: 1660
Human CD33 [4]
  T cell MFI: 240
[5]
  binding result: no binding (tested: 100 nM)
Human CD33 [6]
  Monocyte MFI: 169
[7]
  Kd: 4.12 nM
Human CD33 [8]
  Percent CD33 Surface Expression, DC % CD33: 21%
  Percent CD33 Surface Expression, Macrophage % CD33: 41.3%
  Percent CD33 Surface Expression, Monocyte % CD33: 43%
[9]
  Percent RBC Binding to CD33: 14.2%
Human CD33 [10]
  Macrophage MFI: 1060

B11: C-32 (antibody, V domains shown)
VH: EVQLVESGGGLVQPGGSLRLSCAASGFTFSSYWMSWVRQAPGKGLEWVANIKSDGSEKYYVDSVKGRFTISRDNAKNSLYLQMNSLRAEDTAVYYCARGPSEAAAAKDFDLWGRGTLVTVSS
VL: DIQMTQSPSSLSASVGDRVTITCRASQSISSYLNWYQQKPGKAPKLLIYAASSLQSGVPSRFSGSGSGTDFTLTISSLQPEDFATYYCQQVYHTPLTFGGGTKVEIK
notes: human IgG1
[1]
  Kd: 1.63 nM
[2]
  Percent RBC Binding to CD33: 7.86%
Human CD33 [3]
  DC MFI: 1460
Human CD33 [4]
  T cell MFI: 248
[5]
  binding result: no binding (tested: 100 nM)
Human CD33 [6]
  Monocyte MFI: 133
[7]
  Kd: 7.82 nM
Human CD33 [8]
  Percent CD33 Surface Expression, DC % CD33: 17.3%
  Percent CD33 Surface Expression, Macrophage % CD33: 43.2%
  Percent CD33 Surface Expression, Monocyte % CD33: 33.5%
[9]
  Percent RBC Binding to CD33: 12.5%
Human CD33 [10]
  Macrophage MFI: 855
